Values of other authors in article PMC2868910.

Molecular target: thrombomodulin (Homo sapiens) (UniProt P07204)

Kd: 0.5 nM
Substance: thrombin (from UniProt P00734)
